Assay results from paper PMC4008586 (PLoS ONE, 2014).

Target: Bim-BH3 peptide
Assay: SPR; Biacore assay; who was immobilised and the conditions are not stated
Conditions: both partners purified

| Kd | Binder |
| --- | --- |
| ~0.06 nM | hMcl-1(171–327), wild type (domain or fragment, human, UniProt Q07820 171-327, looked up, also called myeloid cell leukemia-1) EDELYRQSLEIISRYLREQATGAKDTKPMGRSGATSRKALETLRRVGDGVQRNHETAFQGMLRKLDIKNEDDVKSLSRVMIHVFSDGVTNWGRIVTLISFGAFVAKHLKTINQESCIEPLAESITDVLVRTKRDWLVKQRGWDGFVEFFHVEDLEGG |
| ~0.06 nM | hMcl-1(171–327) Cys 286 → Ser (domain or fragment, human, UniProt Q07820 171-327, looked up, seven nonnative residues LHHHHHH at the C-terminus; The NMR samples were uniformly 13C,15N-labeled (or U-15N, 5% 13C); also called mutant; mutant Cys 286 → Ser) EDELYRQSLEIISRYLREQATGAKDTKPMGRSGATSRKALETLRRVGDGVQRNHETAFQGMLRKLDIKNEDDVKSLSRVMIHVFSDGVTNWGRIVTLISFGAFVAKHLKTINQESSIEPLAESITDVLVRTKRDWLVKQRGWDGFVEFFHVEDLEGG |
